Target: biotinylated D614G SARS-CoV-2 spike trimer (SARS-CoV-2) (UniProt P0DTC2)
Assay: AlphaLISA, inhibition of ACE2-muFc / biotinylated spike complex

Substance: anti-RBD neutralizing monoclonal antibody (human IgG1) from Acro Biosystems (SAD-S35)
- IC50: 1.84 nM

— patent publication US20230002478A1
